Blank lines part the entries; values can stand above or below the substance they belong to.
Tests used:
[1] = biological target: binding target of the bombesin analog IMP493 (not named in the paragraph); experiment: assay not described
[2] = biological target: somatostatin receptors on AR42J cells (rat); experiment: competition with ^111In(DTPA-octreotide) on AR42J cells, apparent IC50
[3] = biological target: gastrin-releasing peptide receptor on PC-3 cells (UniProt P30550); experiment: competition with ^125I-BBN on PC-3 cells, repeat experiment
Sequence of gastrin-releasing peptide receptor on PC-3 cells (P30550 whole entry): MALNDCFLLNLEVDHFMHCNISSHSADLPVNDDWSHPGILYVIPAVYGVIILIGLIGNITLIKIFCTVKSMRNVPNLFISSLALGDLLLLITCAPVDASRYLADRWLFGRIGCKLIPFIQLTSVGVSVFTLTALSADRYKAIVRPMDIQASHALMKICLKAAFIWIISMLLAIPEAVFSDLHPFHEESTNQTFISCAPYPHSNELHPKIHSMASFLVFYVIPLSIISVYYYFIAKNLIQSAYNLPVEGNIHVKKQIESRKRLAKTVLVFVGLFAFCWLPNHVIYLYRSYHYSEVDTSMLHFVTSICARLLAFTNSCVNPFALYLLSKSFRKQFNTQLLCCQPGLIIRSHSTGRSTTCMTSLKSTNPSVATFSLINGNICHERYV

[4] = biological target: carcinoembryonic antigen (CEA) (UniProt P06731); experiment: SEC-HPLC shift; the labeled Fab in serum without CEA eluted at 10.331 min
Sequence of carcinoembryonic antigen (CEA) (P06731 35-685 limits assumed): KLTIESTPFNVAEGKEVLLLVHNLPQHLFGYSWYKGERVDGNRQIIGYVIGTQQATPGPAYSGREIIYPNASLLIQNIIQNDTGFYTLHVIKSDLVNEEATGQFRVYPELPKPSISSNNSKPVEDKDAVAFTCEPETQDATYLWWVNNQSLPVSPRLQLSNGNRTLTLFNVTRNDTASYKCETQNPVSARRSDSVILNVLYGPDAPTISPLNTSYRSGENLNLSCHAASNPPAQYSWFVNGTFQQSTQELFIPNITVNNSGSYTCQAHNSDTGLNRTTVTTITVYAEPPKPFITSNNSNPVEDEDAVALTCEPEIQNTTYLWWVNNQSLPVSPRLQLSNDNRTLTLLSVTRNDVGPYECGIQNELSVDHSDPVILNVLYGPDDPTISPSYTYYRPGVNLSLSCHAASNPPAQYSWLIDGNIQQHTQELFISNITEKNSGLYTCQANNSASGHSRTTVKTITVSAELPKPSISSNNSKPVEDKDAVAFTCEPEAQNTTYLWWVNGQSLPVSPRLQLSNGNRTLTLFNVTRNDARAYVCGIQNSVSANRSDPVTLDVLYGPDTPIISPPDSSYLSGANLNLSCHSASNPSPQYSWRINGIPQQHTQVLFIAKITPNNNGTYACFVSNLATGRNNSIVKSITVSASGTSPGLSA

Sequence of somatostatin receptors on AR42J cells (rat) (P30680 whole entry): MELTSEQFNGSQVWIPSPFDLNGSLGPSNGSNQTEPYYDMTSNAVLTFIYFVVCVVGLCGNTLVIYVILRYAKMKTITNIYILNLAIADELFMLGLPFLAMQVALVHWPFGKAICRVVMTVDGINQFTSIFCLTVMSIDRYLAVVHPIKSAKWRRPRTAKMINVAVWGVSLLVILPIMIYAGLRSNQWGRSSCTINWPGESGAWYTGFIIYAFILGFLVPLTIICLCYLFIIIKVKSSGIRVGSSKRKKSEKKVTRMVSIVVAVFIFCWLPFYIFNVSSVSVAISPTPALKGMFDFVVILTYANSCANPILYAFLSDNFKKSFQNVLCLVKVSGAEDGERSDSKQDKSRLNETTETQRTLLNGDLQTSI

- EC50 [1]: 0.059 µM
Substance: ^125I-Bombesin (Perkin-Elmer) (peptide)

- IC50 [2]: 0.0036 µM
Substance: Al^19F(IMP466) (Al^19F complex of NOTA-D-Phe-Cys-Phe-D-Trp-Lys-Thr-Cys-Throl) (peptide)

- IC50 [2]: 0.013 µM
Substance: ^69Ga(IMP466) (peptide)

- IC50 [3]: 0.0244 µM
Substance: commercially available BBN peptide (positive control)

- SEC-HPLC retention time of major product after adding CEA [4]: 7.21 min
Substance: Al^18F(NODA-MPAES)-hMN-14 Fab′

From patent US20140228541A1
